# Results reported in the supplement of paper PMC11246515.
# ± gives the standard deviation of the averaged measurements.
# Experiment: total protein half-life in vivo (active degradation + dilution); higher = more stable protein
# [1] = E. coli NCM3722 delta-clpP, growth: N-lim chemostat, doubling time 6 h
# [2] = E. coli NCM3722 delta-hslV, growth: N-lim chemostat, doubling time 6 h
# [3] = E. coli NCM3722 delta-lon, growth: N-lim chemostat, doubling time 6 h
# [4] = E. coli NCM3722 delta-smpB, growth: N-lim chemostat, doubling time 6 h
# [5] = wild type E. coli NCM3722, growth: C-lim chemostat, doubling time 3 h
# [6] = wild type E. coli NCM3722, growth: C-lim chemostat, doubling time 6 h
# [7] = wild type E. coli NCM3722, growth: C-lim chemostat, doubling time 12 h
# [8] = wild type E. coli NCM3722, growth: N-lim chemostat, doubling time 6 h
# [9] = wild type E. coli NCM3722, growth: N-lim chemostat, doubling time 12 h
# [10] = wild type E. coli NCM3722, growth: P-lim chemostat, doubling time 6 h
# [11] = E. coli NCM3722 delta-clpP delta-lon delta-hslV, growth: N-lim chemostat, doubling time 6 h
# [12] = wild type E. coli NCM3722, growth: P-lim chemostat, doubling time 12 h
Sequence,total protein half-life in vivo [1],total protein half-life in vivo [2],total protein half-life in vivo [3],total protein half-life in vivo [4],total protein half-life in vivo [5],total protein half-life in vivo [6],total protein half-life in vivo [7],total protein half-life in vivo [8],total protein half-life in vivo [9],total protein half-life in vivo [10],total protein half-life in vivo [11],total protein half-life in vivo [12]
MKIAILSRDGTLYSCKRLREAAIQRGHLVEILDPLSCYMNINPAASSIHYKGRKLPHFDAVIPRIGTAITFYGTAALRQFEMLGSYPLNESVAIARARDKLRSMQLLARQGIDLPVTGIAHSPDDTSDLIDMVGGAPLVVKLVEGTQGIGVVLAETRQAAESVIDAFRGLNAHILVQEYIKEAQGCDIRCLVVGDEVVAAIERRAKEGDFRSNLHRGGAASVASITPQEREIAIKAARTMALDVAGVDILRANRGPLVMEVNASPGLEGIEKTTGIDIAGKMIRWIERHATTEYCLKTGG [P0C0U4],4.13 ± 0.23 h,3.76 ± 0.12 h,4.31 ± 0.27 h,3.78 ± 0.36 h,2.85 ± 0.062 h,5.3 ± 0.24 h,10.9 ± 0.29 h,3.77 ± 0.19 h,6.029 ± 0.023 h,5.56 ± 0.65 h,–,–
MKICLIDETGTGDGALSVLAARWGLEHDEDNLMALVLTPEHLELRKRDEPKLGGIFVDFVGGAMAHRRKFGGGRGEAVAKAVGIKGDYLPDVVDATAGLGRDAFVLASVGCRVRMLERNPVVAALLDDGLARGYADAEIGGWLQERLQLIHASSLTALTDITPRPQVVYLDPMFPHKQKSALVKKEMRVFQSLVGPDLDADGLLEPARLLATKRVVVKRPDYAPPLANVATPNAVVTKGHRFDIYAGTPV,5.05 ± 0.67 h,5.29 h,5.92 ± 0.037 h,5.27 ± 0.32 h,–,–,11.1 ± 1 h,5.3 ± 0.28 h,11.5 ± 1.8 h,–,6.34 ± 1.2 h,12.9 ± 0.86 h
MKIFLENLYHSDCYFLPIRDNQQVLVGVELITHFSSEDGTVRIPTSRVIAQLTEEQHWQLFSEQLELLKSCQHFFIQHKLFAWLNLTPQVATLLLERDNYAGELLKYPFIELLINENYPHLNEGKDNRGLLSLSQVYPLVLGNLGAGNSTMKAVFDGLFTRVMLDKSFIQQQITHRSFEPFIRAIQAQISPCCNCIIAGGIDTAEILAQITPFDFHALQGCLWPAVPINQITTLVQR,4.111 ± 0.0084 h,3.897 ± 0.0064 h,4.44 ± 0.36 h,3.866 ± 0.031 h,2.99 ± 0.1 h,6.47 ± 1.4 h,9.89 h,4.22 ± 0.84 h,7.69 ± 1.8 h,5.87 ± 0.37 h,4.97 ± 0.65 h,11.5 ± 0.35 h
MKIFSVRQTVLPALLVLSPVVFAADEQTMIVSAAPQVVSELDTPAAVSVVDGEEMRLATPRINLSESLTGVPGLQVQNRQNYAQDLQLSIRGFGSRSTYGIRGIRLYVDGIPATMPDGQGQTSNIDLSSVQNVEVLRGPFSALYGNASGGVMNVTTQTGQQPPTIEASSYYGSFGSWRYGLKATGATGDGTQPGDVDYTVSTTRFTTHGYRDHSGAQKNLANAKLGVRIDEASKLSLIFNSVDIKADDPGGLTKAEWKANPQQAPRAEQYDTRKTIKQTQAGLRYERSLSSRDDMSVMMYAGERETTQYQSIPMAPQLNPSHAGGVITLQRHYQGIDSRWTHRGELGVPVTFTTGLNYENMSENRKGYNNFRLNSGMPEYGQKGELRRDERNLMWNIDPYLQTQWQLSEKLSLDAGVRYSSVWFDSNDHYVTPGNGDDSGDASYHKWLPAGSLKYAMTDAWNIYLAAGRGFETPTINELSYRADGQSGMNLGLKPSTNDTIEIGSKTRIGDGLLSLALFQTDTDDEIVVDSSSGGRTTYKNAGKTRRQGAELAWDQRFAGDFRVNASWTWLDATYRSNVCNEQDCNGNRMPGIARNMGFASIGYVPEDGWYAGTEARYMGDIMADDENTAKAPSYTLVGLFTGYKYNYHNLTVDLFGRVDNLFDKEYVGSVIVNESNGRYYEPSPGRNYGVGMNIAWRFE,6.48 ± 0.072 h,–,–,5.98 ± 0.44 h,–,6.21 ± 0.33 h,13.6 ± 1 h,6.02 ± 0.5 h,12.9 ± 0.56 h,5.34 ± 0.089 h,5.463 ± 0.043 h,> 16 h
MKIGIIGAMEEEVTLLRDKIENRQTISLGGCEIYTGQLNGTEVALLKSGIGKVAAALGATLLLEHCKPDVIINTGSAGGLAPTLKVGDIVVSDEARYHDADVTAFGYEYGQLPGCPAGFKADDKLIAAAEACIAELNLNAVRGLIVSGDAFINGSVGLAKIRHNFPQAIAVEMEATAIAHVCHNFNVPFVVVRAISDVADQQSHLSFDEFLAVAAKQSSLMVESLVQKLAHG [P0AF12],4.39 ± 0.069 h,4.42 ± 0.2 h,–,5.43 ± 0.68 h,3.27 ± 0.28 h,6.36 ± 0.19 h,12.6 ± 1.4 h,4.85 ± 0.48 h,8.24 ± 0.78 h,5.73 ± 0.097 h,4.9 ± 0.49 h,12.1 ± 0.39 h
MKIGTVAGTNDSTTTIATNDMVQEHVTNFTKELFGYIANGIGDDISSIARTMLGEVVEKIDDWQIERFQQSIQDDKISFTIQTDHSEKYSMLSGMRAHILRRNNNYQFIVTINSKNYGCSLDNTDINWCSIVYLLNNMTVNDNANDVAVTESYKPIWNWKISQYNVSDIKFETMIKPQFADRIYFSNCLPVDPTSTRPTYFGDTDGSVGAVLFALFATGHLGIMAEGENFLSQLLNIEDEVLNVLLRENFNEQLNTNVNTIISILNRRDIILESLQPYLVINKDAVTPCTFLGDQTGDRFSNICGDQFIIDLLKRIMSINENVHVLAGNHETNCNGNYMQNFTRMKPLDEDTYSGIKDYPVCFYDPKYKIMANHHGITFDDQRKRYIIGPITVSIDEMTNALDPVELAAIINKKHHAIINGKKFKTSRAISCRSFNRYFSVSTDYRPKLEALLACSQMLGINQVVAHNGNGGRERIGETGTVLGLNARDSKHAGRMFSMHNCQINPGAGPEITTPWKSYQHEKNRNGLMPLIRRRTMLQL,–,–,–,–,–,–,–,–,–,–,5.59 ± 0.23 h,–
MKIHTTEALMKAEISRRSLMKTSALGSLALASSAFTLPFSQMVRAAEAPVEEKAVWSSCTVNCGSRCLLRLHVKDDTVYWVESDTTGDDVYGNHQVRACLRGRSIRRRMNHPDRLKYPMKRVGKRGEGKFERISWDEALDTISDNLRRILKDYGNEAVHVLYGTGVDGGNITNSNVPYRLMNSCGGFLSRYGSYSTAQISAAMSYMFGANDGNSPDDIANTKLVVMFGNNPAETRMSGGGVTYYVEQARERSNARMIVIDPRYNDTAAGREDEWLPIRPGTDGALACAIAWVLITENMVDQPFLDKYCVGYDEKTLPANAPRNAHYKAYILGEGPDGIAKTPEWAAKITSIPAEKIIQLAREIGSAKPAYICQGWGPQRHSNGEQTSRAIAMLSVLTGNVGINGGNSGVREGSWDLGVEWFPMLENPVKTQISVFTWTDAIDHGTEMTATRDGVRGKEKLDVPIKFLWCYASNTLINQHGDINHTHEVLQDDSKCEMIVGIDHFMTASAKYCDILLPDLMPTEQEDLISHESAGNMGYVILAQPATSAKFERKPIYWMLSEVAKRLGPDVYQTFTEGRSQHEWIKYLHAKTKERNPEMPDYEEMKTTGIFKKKCPEEHYVAFRAFREDPQANPLKTPSGKIEIYSERLAKIADTWELKKDEIIHPLPAYTPGFDGWDDPLRKTYPLQLTGFHYKARTHSSYGNIDVLQQACPQEVWINPIDAQARGIRHGDTVRVFNNNGEMLIAAKVTPRILPGVTAIGQGAWLKADMFGDRVDHGGSINILTSHRPSPLAKGNPSHSNLVQIEKV,–,–,–,4.94 h,–,4.9 h,13.9 h,–,3.57 h,–,6.47 ± 2.1 h,3.5 h
MKILLAALTSSFMLVGCTPRIEVAAPKEPITINMNVKIEHEIIIKADKDVEELLETRSDLF,–,–,6.88 ± 0.2 h,5.661 ± 0.018 h,3.15 ± 0.11 h,–,12 ± 1.4 h,–,13.6 ± 1.1 h,–,7.04 ± 0.68 h,12.9 ± 0.47 h
MKILVIGPSWVGDMMMSQSLYRTLQARYPQAIIDVMAPAWCRPLLSRMPEVNEAIPMPLGHGALEIGERRKLGHSLREKRYDRAYVLPNSFKSALVPFFAGIPHRTGWRGEMRYGLLNDVRVLDKEAWPLMVERYIALAYDKGIMRTAQDLPQPLLWPQLQVSEGEKSYTCNQFSLSSERPMIGFCPGAEFGPAKRWPHYHYAELAKQLIDEGYQVVLFGSAKDHEAGNEILAALNTEQQAWCRNLAGETQLDQAVILIAACKAIVTNDSGLMHVAAALNRPLVALYGPSSPDFTPPLSHKARVIRLITGYHKVRKGDAAEGYHQSLIDITPQRVLEELNALLLQEEA,6.69 ± 0.98 h,5.71 ± 0.23 h,5.22 ± 0.11 h,6.11 ± 0.48 h,3.24 ± 0.14 h,5.58 ± 0.14 h,11.7 ± 2.8 h,6.4 ± 0.97 h,11.1 ± 1.8 h,6.54 ± 0.24 h,6.06 ± 0.088 h,11.7 ± 1.7 h
MKILVYGINYSPELTGIGKYTGEMVEWLAAQGHEVRVITAPPYYPQWQVGENYSAWRYKREEGAATVWRCPLYVPKQPSTLKRLLHLGSFAVSSFFPLMAQRRWKPDRIIGVVPTLFCAPGMRLLAKLSGARTVLHIQDYEVDAMLGLGLAGKGKGGKVAQLATAFERSGLHNVDNVSTISRSMMNKAIEKGVAAENVIFFPNWSEIARFQHVADADVDALRNQLDLPDNKKIILYSGNIGEKQGLENVIEAADRLRDEPLIFAIVGQGGGKARLEKMAQQRGLRNMQFFPLQSYDALPALLKMGDCHLVVQKRGAADAVLPSKLTNILAVGGNAVITAEAYTELGQLCETFPGIAVCVEPESVEALVAGIRQALLLPKHNTVAREYAERTLDKENVLRQFINDIRG,–,–,–,5.37 h,–,–,–,–,–,–,4.84 h,–
MKIRSQVGMVLNLDKCIGCHTCSVTCKNVWTGREGMEYAWFNNVETKPGIGYPKNWEDQEEWQGGWVRDVNGKIRPRLGNKMGVITKIFANPVVPQIDDYYEPFTFDYEHLHSAPEGKHIPTARPRSLIDGKRMDKVIWGPNWEELLGGEFEKRARDRNFEAMQKEMYGQFENTFMMYLPRLCEHCLNPSCVATCPSGAIYKREEDGIVLIDQDKCRGWRLCISGCPYKKIYFNWKSGKSEKCIFCYPRIESGQPTVCSETCVGRIRYLGVLLYDADRIEEAASTEREVDLYERQCEVFLDPHDPSVIEEALKQGIPQNVIDAAQRSPVYKMAMDWKLALPLHPEYRTLPMVWYVPPLSPIQSYADAGGLPKSEGVLPAIESLRIPVQYLANMLSAGDTGPVLRALKRMMAMRHYMRSQTVEGVTDTRAIDEVGLSVAQVEEMYRYLAIANYEDRFVIPTSHREMAGDAFAERNGCGFTFGDGCHGSDSKFNLFNSSRIDAINITEVRDKAEGE,5.74 ± 0.49 h,6.23 ± 0.64 h,6.34 ± 1.3 h,5.77 ± 1.2 h,3.14 ± 0.27 h,5.54 ± 0.12 h,10.3 ± 0.17 h,5.94 ± 0.089 h,12.5 ± 0.46 h,5.68 ± 0.26 h,6.49 ± 0.73 h,11.62 ± 0.051 h
MKIRSQVGMVLNLDKCIGCHTCSVTCKNVWTSREGVEYAWFNNVETKPGQGFPTDWENQEKYKGGWIRKINGKLQPRMGNRAMLLGKIFANPHLPGIDDYYEPFDFDYQNLHTAPEGSKSQPIARPRSLITGERMAKIEKGPNWEDDLGGEFDKLAKDKNFDNIQKAMYSQFENTFMMYLPRLCEHCLNPACVATCPSGAIYKREEDGIVLIDQDKCRGWRMCITGCPYKKIYFNWKSGKSEKCIFCYPRIEAGQPTVCSETCVGRIRYLGVLLYDADAIERAASTENEKDLYQRQLDVFLDPNDPKVIEQAIKDGIPLSVIEAAQQSPVYKMAMEWKLALPLHPEYRTLPMVWYVPPLSPIQSAADAGELGSNGILPDVESLRIPVQYLANLLTAGDTKPVLRALKRMLAMRHYKRAETVDGKVDTRALEEVGLTEAQAQEMYRYLAIANYEDRFVVPSSHRELAREAFPEKNGCGFTFGDGCHGSDTKFNLFNSRRIDAIDVTSKTEPHP,5.37 ± 0.84 h,5.9 ± 0.44 h,5.52 ± 0.8 h,5.81 ± 0.086 h,–,5.809 ± 0.058 h,12.8 h,5.29 h,11.3 ± 0.39 h,6 ± 0.39 h,5.82 ± 0.15 h,10.8 ± 2.4 h
